Measurements taken from the array DNA melting data of Ke et al..

Test: melting temperature; melt of duplexes
Conditions: sodium 0.0675 M; strand 1 µM
“CGACGTGCCCCATGTGCTG+CAGCACATTAAGCACGTCG ((((((((...((((((((+))))))))...))))))))” showed a Tm of 47.2 °C. For “CGACGTGCCCTATGTGCTG+CAGCACATGACGCACGTCG ((((((((...((((((((+))))))))...))))))))”, the Tm was 44 °C. With “CGACGTGCACGATGTGCTG+CAGCACATCGTGCACGTCG (((((((((((((((((((+)))))))))))))))))))” the Tm was 65.4 °C. For “CGACGTGCTGAATGTGCTG+CAGCACATAACGCACGTCG ((((((((...((((((((+))))))))...))))))))”, the Tm was 50 °C. For “CGACGTGCACAATGTGCTG+CAGCACATTTGGCACGTCG ((((((((..(((((((((+)))))))))..))))))))”, the Tm was 51.2 °C. “CGACGTGCACCATGTGCTG+CAGCACATGAAGCACGTCG ((((((((..(((((((((+)))))))))..))))))))” gave a Tm of 51 °C. Work on “CGACGTGCATCATGTGCTG+CAGCACATTGCGCACGTCG ((((((((...((((((((+))))))))...))))))))” yielded a Tm of 46.9 °C. In the case of “CGACGTGCTCCATGTGCTG+CAGCACATACAGCACGTCG (((((((((..((((((((+))))))))..)))))))))”, the Tm is reported as 49.6 °C. In the case of “CGACGTGCTAAATGTGCTG+CAGCACATCCAGCACGTCG (((((((((..((((((((+))))))))..)))))))))”, the Tm is reported as 50.8 °C. Substance “CGACGTGCCGCATGTGCTG+CAGCACATGCGGCACGTCG (((((((((((((((((((+)))))))))))))))))))” has a Tm of 69.1 °C. Work on “CGACGTGCGGTATGTGCTG+CAGCACATTTAGCACGTCG ((((((((...((((((((+))))))))...))))))))” yielded a Tm of 54.5 °C. “CGACGTGCGGCATGTGCTG+CAGCACATGTCGCACGTCG (((((((((.(((((((((+))))))))).)))))))))” gave a Tm of 63.5 °C. “CGACGTGCGGCATGTGCTG+CAGCACATATGGCACGTCG ((((((((...((((((((+))))))))...))))))))” showed a Tm of 49.5 °C. With “CGACGTGCTCAATGTGCTG+CAGCACATGCTGCACGTCG ((((((((...((((((((+))))))))...))))))))” the Tm was 47.9 °C. Substance “CGACGTGCCAGATGTGCTG+CAGCACATTCAGCACGTCG ((((((((...((((((((+))))))))...))))))))” has a Tm of 50.7 °C. Work on “CGACGTGCAGGATGTGCTG+CAGCACATCTAGCACGTCG ((((((((..(((((((((+)))))))))..))))))))” yielded a Tm of 56 °C. Substance “CGACGTGCCAAATGTGCTG+CAGCACATGCCGCACGTCG ((((((((...((((((((+))))))))...))))))))” has a Tm of 50.6 °C. “CGACGTGCGAAATGTGCTG+CAGCACATGTCGCACGTCG ((((((((((.((((((((+)))))))).))))))))))” showed a Tm of 58.9 °C. Work on “CGACGTGCACCATGTGCTG+CAGCACATACTGCACGTCG (((((((((..((((((((+))))))))..)))))))))” yielded a Tm of 44.9 °C. With “CGACGTGCTAAATGTGCTG+CAGCACATTCCGCACGTCG ((((((((..(((((((((+)))))))))..))))))))” the Tm was 50.1 °C. “CGACGTGCTGTATGTGCTG+CAGCACATGCTGCACGTCG ((((((((.(.((((((((+)))))))).).))))))))” gave a Tm of 54.1 °C. In the case of “CGACGTGCCAAATGTGCTG+CAGCACATAGGGCACGTCG (((((((((..((((((((+))))))))..)))))))))”, the Tm is reported as 54.6 °C. “CGACGTGCGATATGTGCTG+CAGCACATGAGGCACGTCG ((((((((...((((((((+))))))))...))))))))” gave a Tm of 53.1 °C. Work on “CGACGTGCTAGATGTGCTG+CAGCACATACTGCACGTCG ((((((((...((((((((+))))))))...))))))))” yielded a Tm of 50.9 °C. “CGACGTGCGAGATGTGCTG+CAGCACATGCGGCACGTCG ((((((((...((((((((+))))))))...))))))))” gave a Tm of 50.4 °C. With “CGACGTGCACGATGTGCTG+CAGCACATAAAGCACGTCG ((((((((...((((((((+))))))))...))))))))” the Tm was 46.8 °C. “CGACGTGCTATATGTGCTG+CAGCACATTGAGCACGTCG (((((((((..((((((((+))))))))..)))))))))” gave a Tm of 52.9 °C. In the case of “CGACGTGCGGTATGTGCTG+CAGCACATACAGCACGTCG ((((((((.((((((((((+)))))))))).))))))))”, the Tm is reported as 59.5 °C. For “CGACGTGCACTATGTGCTG+CAGCACATCACGCACGTCG ((((((((...((((((((+))))))))...))))))))”, the Tm was 43.3 °C. With “CGACGTGCGACATGTGCTG+CAGCACATAATGCACGTCG ((((((((...((((((((+))))))))...))))))))” the Tm was 50.8 °C. “CGACGTGCTAAATGTGCTG+CAGCACATGGGGCACGTCG ((((((((...((((((((+))))))))...))))))))” showed a Tm of 52.5 °C. In the case of “CGACGTGCAATATGTGCTG+CAGCACATGTTGCACGTCG ((((((((((.((((((((+)))))))).))))))))))”, the Tm is reported as 58.4 °C. Substance “CGACGTGCTATATGTGCTG+CAGCACATTATGCACGTCG ((((((((...((((((((+))))))))...))))))))” has a Tm of 51.6 °C. Substance “CGACGTGCGATATGTGCTG+CAGCACATCAAGCACGTCG ((((((((...((((((((+))))))))...))))))))” has a Tm of 52.1 °C. “CGACGTGCCTGATGTGCTG+CAGCACATCTTGCACGTCG ((((((((..(((((((((+)))))))))..))))))))” showed a Tm of 53.7 °C. “CGACGTGCAGGATGTGCTG+CAGCACATTCAGCACGTCG ((((((((.(.((((((((+)))))))).).))))))))” showed a Tm of 54.1 °C. Substance “CGACGTGCATAATGTGCTG+CAGCACATCGTGCACGTCG (((((((((..((((((((+))))))))..)))))))))” has a Tm of 47.6 °C. In the case of “CGACGTGCCAAATGTGCTG+CAGCACATCTTGCACGTCG ((((((((.(.((((((((+)))))))).).))))))))”, the Tm is reported as 48.7 °C. “CGACGTGCCTAATGTGCTG+CAGCACATTGCGCACGTCG ((((((((..(((((((((+)))))))))..))))))))” showed a Tm of 51 °C. Work on “CGACGTGCCGTATGTGCTG+CAGCACATTTAGCACGTCG ((((((((...((((((((+))))))))...))))))))” yielded a Tm of 48.4 °C. In the case of “CGACGTGCTGCATGTGCTG+CAGCACATTCGGCACGTCG ((((((((.(.((((((((+)))))))).).))))))))”, the Tm is reported as 53.2 °C. “CGACGTGCCTCATGTGCTG+CAGCACATGACGCACGTCG ((((((((.((((((((((+)))))))))).))))))))” showed a Tm of 52.7 °C. “CGACGTGCGCAATGTGCTG+CAGCACATAATGCACGTCG ((((((((...((((((((+))))))))...))))))))” gave a Tm of 50.5 °C. “CGACGTGCGGCATGTGCTG+CAGCACATGCTGCACGTCG ((((((((.((((((((((+)))))))))).))))))))” showed a Tm of 62.7 °C. “CGACGTGCATTATGTGCTG+CAGCACATGGCGCACGTCG ((((((((...((((((((+))))))))...))))))))” gave a Tm of 48.4 °C. Work on “CGACGTGCGTAATGTGCTG+CAGCACATGAGGCACGTCG ((((((((.(.((((((((+)))))))).).))))))))” yielded a Tm of 53.6 °C. “CGACGTGCGTAATGTGCTG+CAGCACATTGTGCACGTCG ((((((((..(((((((((+)))))))))..))))))))” showed a Tm of 52 °C. Substance “CGACGTGCCCCATGTGCTG+CAGCACATGAGGCACGTCG (((((((((.(((((((((+))))))))).)))))))))” has a Tm of 59.6 °C. “CGACGTGCGCAATGTGCTG+CAGCACATGAGGCACGTCG ((((((((...((((((((+))))))))...))))))))” gave a Tm of 52.4 °C. With “CGACGTGCGAGATGTGCTG+CAGCACATCTTGCACGTCG ((((((((.((((((((((+)))))))))).))))))))” the Tm was 60.2 °C. With “CGACGTGCGCTATGTGCTG+CAGCACATAAGGCACGTCG ((((((((..(((((((((+)))))))))..))))))))” the Tm was 51.6 °C. In the case of “CGACGTGCTGTATGTGCTG+CAGCACATTACGCACGTCG ((((((((...((((((((+))))))))...))))))))”, the Tm is reported as 51 °C. With “CGACGTGCAAGATGTGCTG+CAGCACATAGTGCACGTCG (((((((((..((((((((+))))))))..)))))))))” the Tm was 48.6 °C. In the case of “CGACGTGCTACATGTGCTG+CAGCACATGAGGCACGTCG ((((((((..(((((((((+)))))))))..))))))))”, the Tm is reported as 55.8 °C. Work on “CGACGTGCTGTATGTGCTG+CAGCACATCCCGCACGTCG ((((((((.(.((((((((+)))))))).).))))))))” yielded a Tm of 49.4 °C. With “CGACGTGCACGATGTGCTG+CAGCACATATGGCACGTCG ((((((((...((((((((+))))))))...))))))))” the Tm was 46.9 °C. For “CGACGTGCGAAATGTGCTG+CAGCACATATTGCACGTCG ((((((((.(.((((((((+)))))))).).))))))))”, the Tm was 51.9 °C. “CGACGTGCTTCATGTGCTG+CAGCACATTAGGCACGTCG ((((((((.(.((((((((+)))))))).).))))))))” showed a Tm of 50 °C. In the case of “CGACGTGCTAAATGTGCTG+CAGCACATTTCGCACGTCG ((((((((.((((((((((+)))))))))).))))))))”, the Tm is reported as 55.3 °C. Work on “CGACGTGCTCGATGTGCTG+CAGCACATTGTGCACGTCG ((((((((.(.((((((((+)))))))).).))))))))” yielded a Tm of 51.5 °C. “CGACGTGCTCCATGTGCTG+CAGCACATATGGCACGTCG ((((((((...((((((((+))))))))...))))))))” gave a Tm of 49 °C. Work on “CGACGTGCTTTATGTGCTG+CAGCACATGCAGCACGTCG (((((((((..((((((((+))))))))..)))))))))” yielded a Tm of 50.9 °C. With “CGACGTGCTTCATGTGCTG+CAGCACATCGCGCACGTCG ((((((((...((((((((+))))))))...))))))))” the Tm was 46.2 °C. With “CGACGTGCAAGATGTGCTG+CAGCACATCGAGCACGTCG ((((((((..(((((((((+)))))))))..))))))))” the Tm was 57.9 °C. Work on “CGACGTGCTTAATGTGCTG+CAGCACATCATGCACGTCG ((((((((.(.((((((((+)))))))).).))))))))” yielded a Tm of 50.3 °C. “CGACGTGCATAATGTGCTG+CAGCACATTGGGCACGTCG ((((((((..(((((((((+)))))))))..))))))))” gave a Tm of 54.2 °C. Substance “CGACGTGCCAGATGTGCTG+CAGCACATTAAGCACGTCG ((((((((...((((((((+))))))))...))))))))” has a Tm of 50.7 °C. Substance “CGACGTGCAATATGTGCTG+CAGCACATAAGGCACGTCG ((((((((..(((((((((+)))))))))..))))))))” has a Tm of 51.9 °C. With “CGACGTGCCCTATGTGCTG+CAGCACATCATGCACGTCG ((((((((...((((((((+))))))))...))))))))” the Tm was 46.8 °C. In the case of “CGACGTGCGGGATGTGCTG+CAGCACATCGGGCACGTCG ((((((((..(((((((((+)))))))))..))))))))”, the Tm is reported as 56.1 °C. With “CGACGTGCACAATGTGCTG+CAGCACATCGAGCACGTCG ((((((((.(.((((((((+)))))))).).))))))))” the Tm was 48.6 °C. Substance “CGACGTGCCGTATGTGCTG+CAGCACATTAGGCACGTCG (((((((((..((((((((+))))))))..)))))))))” has a Tm of 57.1 °C.
